We go through 38 sequences from the supplement of paper PMC7877785.

The nature of this series: self-splicing fitness, log relative to wild type (ln ratio); higher = more splicing; Tetrahymena group I intron in knt gene, E. coli kanamycin selection, DiMSum; sequences stand for … in CUCUCU…GGAGGGAAAAGUUAUCAGGCAUGCACCUGGUAGCUAGUCUUUAAACCAAUAGAUUGCAUCGGUUUAAAAGGCAAGACCGUCAAAUUGCGGGAAAGGGGUCAACAGCCGUUCAGUACCAAGUCUCAGGGGAAACUUUGAGAUGGCCUUGCAAAGGGUAUGGUAAUAAGCUGACGGACAUGGUCCUAACCACGCAGCCAAGUCCUAAGUCAACAGAUCUUCUGUUGAUAUGGAUGCAGUUCACAGACUAAAUGUCGGUCGGGGAAGAUGUAUUCUUCUCAUAAGAUAUAGUCGGACCUCUCCUUAAUGGGAGCUAGCGGAUGAAGUGAUGCAACACUGGAGCCGCUGGGAACUAAUUUGUAUGCGAAAGUAUAUUGAUUAGUUUUGGAGUACUCGUGGUCG
Put shortly:
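DiMSum derived fitness as the error-weighted combination of fold changes across replicates, kanamycin versus no kanamycin, normalised to wild type. E. coli BL21(DE3) held the library, which randomised all eight P1ex-region intron nucleotides within the knt kanamycin-resistance gene on pET-22b(+). Six replicate transformations grew overnight at 37°C or 30°C on LB agar with or without 25 μg/mL kanamycin, also containing 100 μg/mL carbenicillin, 50 μM IPTG and 0.2% rhamnose, and pooled colonies were amplicon-sequenced on an Illumina HiSeq 2500.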

± gives the uncertainty stated by the source.

For ACUGAGCAAUAUUACGUUUG, the “self-splicing fitness (ln)” value (30 °C) is -3.97 ± 0.21 and the “self-splicing fitness (ln)” value (37 °C) was -2.53 ± 0.18. For the sequence CAGGAGCAAUAUUACGCACA, the “self-splicing fitness (ln)” value runs as follows: (30 °C) -2.48 ± 0.24; (37 °C) -1.88 ± 0.23. Regarding AUAUAGCAAUAUUACGCAUC, the “self-splicing fitness (ln)” value (30 °C) was -2.63 ± 0.22 and the “self-splicing fitness (ln)” value (37 °C) is -1.15 ± 0.26. Turning to GCCGAGCAAUAUUACGUCUU, the “self-splicing fitness (ln)” value was -2.71 ± 0.16 (30 °C) and -1.82 ± 0.14 (37 °C).

Take CCGGAGCAAUAUUACGCUAA: the “self-splicing fitness (ln)” value was -2.65 ± 0.26 (30 °C) and -2.96 ± 0.35 (37 °C).

In the case of UUUGAGCAAUAUUACGAUGU, the “self-splicing fitness (ln)” value is -3.05 ± 0.3 (30 °C) and -2.34 ± 0.39 (37 °C). Consider GACCAGCAAUAUUACGAAUG, for which the “self-splicing fitness (ln)” value is -1.82 ± 0.071 (30 °C) and -1.49 ± 0.088 (37 °C). Taken in the same sequence, the figures for UGUCAGCAAUAUUACGCAGA were -2.8 ± 0.25 and -2.38 ± 0.5.

Consider AAACAGCAAUAUUACGGUAU, for which the “self-splicing fitness (ln)” value was -2.53 ± 0.074 (30 °C) and -1.58 ± 0.088 (37 °C). Taken in the same sequence, the figures for ACAAAGCAAUAUUACGGCAU were -0.565 ± 0.046 and 0.328 ± 0.058.

Regarding GUCGAGCAAUAUUACGCGUA, the “self-splicing fitness (ln)” value is -1.26 ± 0.14 (30 °C) and -0.913 ± 0.11 (37 °C). The matching figures for UGAGAGCAAUAUUACGUCGU: -2.38 ± 0.2 and -2.64 ± 0.36. For AAAAAGCAAUAUUACGGAGC, the “self-splicing fitness (ln)” value runs as follows: (30 °C) -3.4 ± 0.2; (37 °C) -2.1 ± 0.18.

For the sequence GUUGAGCAAUAUUACGGCGG, the “self-splicing fitness (ln)” value (37 °C) is -2.66 ± 0.36. On to CCCGAGCAAUAUUACGGACA, for which the “self-splicing fitness (ln)” value by setting is: (30 °C) -2.72 ± 0.16; (37 °C) -1.19 ± 0.12. CCCCAGCAAUAUUACGUAUA: the “self-splicing fitness (ln)” value by setting is: (30 °C) -4.57 ± 0.34; (37 °C) -3.21 ± 0.28.

Consider GGACAGCAAUAUUACGAGCU, for which the “self-splicing fitness (ln)” value (30 °C) is -1.01 ± 0.18 and the “self-splicing fitness (ln)” value (37 °C) is 0.191 ± 0.19. Taken in the same sequence, the figures for CUAGAGCAAUAUUACGAUUA were -2.49 ± 0.23 and -2.26 ± 0.23. On to ACGUAGCAAUAUUACGAUAU, for which the “self-splicing fitness (ln)” value by setting is: (30 °C) -1.39 ± 0.1; (37 °C) -1.04 ± 0.15. On to CCUCAGCAAUAUUACGCCGA, for which the “self-splicing fitness (ln)” value was -3.12 ± 0.24 (30 °C) and -3.48 ± 0.27 (37 °C).

Turning to AGUUAGCAAUAUUACGGGUA, the “self-splicing fitness (ln)” value (30 °C) was -2.61 ± 0.39 and the “self-splicing fitness (ln)” value (37 °C) was -0.0817 ± 0.2. For CCUCAGCAAUAUUACGGGAU, the “self-splicing fitness (ln)” value by setting is: (30 °C) -4.21 ± 0.2; (37 °C) -2.55 ± 0.17. As to UGUGAGCAAUAUUACGGUCC, the “self-splicing fitness (ln)” value is -3.6 ± 0.48 (30 °C) and -2.09 ± 0.42 (37 °C). Taken in the same sequence, the figures for AACAAGCAAUAUUACGGUAG were -3.81 ± 0.2 and -2.22 ± 0.13.

As for GGAUAGCAAUAUUACGACGU, the “self-splicing fitness (ln)” value was -0.152 ± 0.28 (30 °C) and -0.257 ± 0.24 (37 °C). UUAAAGCAAUAUUACGCGGU: the “self-splicing fitness (ln)” value is -3.37 ± 0.18 (30 °C) and -0.344 ± 0.13 (37 °C).

Take GCGAAGCAAUAUUACGGCCG: the “self-splicing fitness (ln)” value (30 °C) is -1.71 ± 0.29 and the “self-splicing fitness (ln)” value (37 °C) is -1.34 ± 0.37. Regarding CCCGAGCAAUAUUACGACUU, the “self-splicing fitness (ln)” value is -3.24 ± 0.26 (30 °C) and -3.01 ± 0.25 (37 °C). Consider CGGUAGCAAUAUUACGCGGC, for which the “self-splicing fitness (ln)” value is -3.99 ± 0.24 (30 °C) and -2.79 ± 0.25 (37 °C). Regarding CUAUAGCAAUAUUACGGUGC, the “self-splicing fitness (ln)” value is, setting by setting: (30 °C) -3.69 ± 0.28; (37 °C) -2.75 ± 0.29. For the sequence UACGAGCAAUAUUACGUGUG, the “self-splicing fitness (ln)” value is -2.43 ± 0.15 (30 °C) and -1.82 ± 0.12 (37 °C). On to UCAUAGCAAUAUUACGGUGU, for which the “self-splicing fitness (ln)” value is, setting by setting: (30 °C) -3.51 ± 0.21; (37 °C) -1.27 ± 0.13.

Take UAAGAGCAAUAUUACGAUUA: the “self-splicing fitness (ln)” value reads like this: (30 °C) -0.804 ± 0.1; (37 °C) 0.2 ± 0.1.

Regarding GCGCAGCAAUAUUACGACGC, the “self-splicing fitness (ln)” value (30 °C) was -2.89 ± 0.33 and the “self-splicing fitness (ln)” value (37 °C) is -1.81 ± 0.35. For the sequence CAACAGCAAUAUUACGAUAA, the “self-splicing fitness (ln)” value is -2.08 ± 0.1 (30 °C) and -1.67 ± 0.11 (37 °C). As for CAUUAGCAAUAUUACGAGGC, where the note is “37 °C”, the “self-splicing fitness (ln)” value was -1.85 ± 0.33. Turning to AUAGAGCAAUAUUACGACUU, the “self-splicing fitness (ln)” value was -0.0326 ± 0.11 (30 °C) and 0.17 ± 0.11 (37 °C). The matching figures for AGGAAGCAAUAUUACGUUAU: -3.44 ± 0.18 and -1.6 ± 0.17.
